# Data as given in US5861377A, “Antistasin type serine protease inhibitors” (Novartis AG, priority 1994, dated 1999).
# Experiments:
# Urokinase = Urokinase (Homo sapiens, UniProt P00749); assay: Inhibition of amidolytic activity of serine proteinases: urokinase; assay type: biochemical; details: inhibitor 1.3 mM
# Protocol: (§1) To determine the specificity of hirustasin, its effect on the amidolytic activity of various serine proteinases (see Tab. 3) is determined. Therefore, proteinases are incubated with the inhibitor (1.3 mM) for 15 and for 30 min, and the residual enzyme activities are measured after addition of a suitable substrate. Equilibrium dissociation constants (Ki) for the complexes of hirustasin with individual proteases are determined essentially as described by Bieth (Bull. Europ. Physopat. Resp. (1980), 16, 183-195). Briefly, increasing concentrations of the inhibitor are incubated with a constant concentration of the enzyme; the time necessary to reach equilibration of the enzyme-inhibitor complex is determined for each protease in preliminary experiments. Substrate is then added and the residual enzyme activity measured. Apparent Ki -values are calculated by fitting the steady state velocities to the equation for tight binding inhibitors (Morrison, Biochem. Biophys. Acta (1969), 185, 269-286) using non-linear regression analysis.
# Plasma kallikrein = Plasma kallikrein (Homo sapiens, UniProt P03952); assay: Inhibition of amidolytic activity of serine proteinases: plasma kallikrein; assay type: biochemical; details: inhibitor 1.3 mM
# Protocol: as §1
# Thrombin = target: T1, Thrombin (Homo sapiens, UniProt P00734); assay: Inhibition of amidolytic activity of serine proteinases: thrombin; assay type: biochemical; set-up: effect on proteinase activity: dose or concentration left out as unconfirmed
# T1 construct: the other proteinases tested including human α-thrombin and factor Xa
# Protocol: as §1, with “(1.3 mM)” left out
# Factor Xa = Factor Xa (Homo sapiens, UniProt P00742); assay: Inhibition of amidolytic activity of serine proteinases: factor Xa; assay type: biochemical; set-up: effect on proteinase activity: dose or concentration left out as unconfirmed
# Protocol: as §1, with “(1.3 mM)” left out
# Pancreatic elastase = Pancreatic elastase (Sus scrofa, UniProt P00772); assay: Inhibition of amidolytic activity of serine proteinases: pancreatic elastase; assay type: biochemical; details: porcine pancreatic elastase; inhibitor 1.3 mM
# Protocol: as §1
# Leukocyte elastase = target: T2, Leukocyte elastase (Homo sapiens, UniProt P08246); assay: Inhibition of amidolytic activity of serine proteinases: leukocyte elastase; assay type: biochemical; details: inhibitor 1.3 mM
# T2 sequence (P08246 30-267): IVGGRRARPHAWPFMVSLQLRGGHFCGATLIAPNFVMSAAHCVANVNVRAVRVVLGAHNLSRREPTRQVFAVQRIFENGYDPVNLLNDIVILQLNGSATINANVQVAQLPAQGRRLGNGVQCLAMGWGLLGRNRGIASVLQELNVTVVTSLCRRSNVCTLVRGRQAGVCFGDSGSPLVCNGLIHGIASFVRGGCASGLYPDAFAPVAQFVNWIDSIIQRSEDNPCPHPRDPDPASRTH
# Protocol: as §1
# Subtilisin = assay: Inhibition of amidolytic activity of serine proteinases: subtilisin; assay type: biochemical; details: Bact. subt. subtilisin; inhibitor 1.3 mM
# Protocol: as §1
# Chymase = assay: Inhibition of amidolytic activity of serine proteinases: chymase; assay type: biochemical; details: porcine chymase; inhibitor 1.3 mM
# Protocol: as §1
# prothrombin time = assay: In vitro blood coagulation: prothrombin time (Quick)
# Protocol: (§2) To determine whether hirustasin inhibits the blood coagulation in vitro, its effect on the prothrombin time and the partial thromboplastin time is measured using an Amelung KC10 coagulometer (Lemgo, Germany) and the reagent sets from Behringwerke AG (Marburg, Germany) according to the guidelines of the manufacturers.
# [1] = system: partial thromboplastin time; assay: In vitro blood coagulation: partial thromboplastin time
# Protocol: as §2
# [2] = system: blood coagulation cascade; assay: Blood coagulation cascade in vitro (general statement)
# Protocol: as §2
# trypsin = target: T3, trypsin (Bos taurus, UniProt P00760); assay: Inhibitory activity during purification: amidolytic activity of trypsin; assay type: biochemical; details: trypsin inhibition; fraction of the isolation step
# T3 sequence (P00760 24-246): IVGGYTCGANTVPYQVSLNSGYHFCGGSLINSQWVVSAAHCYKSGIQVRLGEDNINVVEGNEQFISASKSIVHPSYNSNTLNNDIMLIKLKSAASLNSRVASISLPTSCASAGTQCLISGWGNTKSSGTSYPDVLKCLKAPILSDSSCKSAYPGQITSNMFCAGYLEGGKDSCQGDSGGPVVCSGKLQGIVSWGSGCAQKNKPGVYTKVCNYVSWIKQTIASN
# Protocol: During the purification procedure inhibitory activity is assayed by measuring the inhibition of the amidolytic activities of trypsin and chymotrypsin. Samples are incubated with trypsin (225 nM) in 50 mM Tris/HCl (pH 7.8), 0.1% (mass/vol) Triton X-100, for 12 min at 25° C. The assay is started by addition of the substrate benzoyl-L-argininep-nitroanilide (0.4 mM, final concentration). The released nitroaniline is monitored photometrically at 405 nm for 3.5 min using an UVIKON 930® photometer (Kontron; Eching, Germany).
# (§3) One inhibition unit (IU) is defined as the amount of inhibitor which reduces the substrate hydrolysis by 1 mmol per min.
# chymotrypsin = chymotrypsin (Bos taurus, UniProt P00766); assay: Inhibitory activity during purification: amidolytic activity of chymotrypsin; assay type: biochemical; details: chymotrypsin inhibition; fraction of the isolation step
# Source text: as §3
# Chain of Factor Xa (P00742 235-488 limits assumed): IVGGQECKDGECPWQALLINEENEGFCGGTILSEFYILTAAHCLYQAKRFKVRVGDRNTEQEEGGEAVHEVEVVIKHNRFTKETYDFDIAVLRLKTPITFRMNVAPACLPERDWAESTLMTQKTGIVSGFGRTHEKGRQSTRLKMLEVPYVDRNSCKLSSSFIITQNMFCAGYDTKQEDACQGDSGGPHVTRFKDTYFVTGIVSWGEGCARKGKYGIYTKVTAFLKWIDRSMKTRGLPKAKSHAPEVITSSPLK
# Chain of Factor Xa (P00742 41-179 partner limits assumed): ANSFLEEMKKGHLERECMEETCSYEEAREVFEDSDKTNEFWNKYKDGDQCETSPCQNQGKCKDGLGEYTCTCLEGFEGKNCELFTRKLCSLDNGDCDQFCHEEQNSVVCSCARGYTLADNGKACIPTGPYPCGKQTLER
# Chain of Plasma kallikrein (P03952 391-638 limits assumed): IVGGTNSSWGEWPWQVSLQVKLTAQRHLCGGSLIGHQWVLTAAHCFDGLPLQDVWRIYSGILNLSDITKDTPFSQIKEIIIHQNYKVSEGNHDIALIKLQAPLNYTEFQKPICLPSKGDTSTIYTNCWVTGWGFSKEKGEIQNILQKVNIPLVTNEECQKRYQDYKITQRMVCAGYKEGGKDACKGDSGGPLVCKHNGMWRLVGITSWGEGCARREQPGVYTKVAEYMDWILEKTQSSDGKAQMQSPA
# Chain of Plasma kallikrein (P03952 20-390 partner limits assumed): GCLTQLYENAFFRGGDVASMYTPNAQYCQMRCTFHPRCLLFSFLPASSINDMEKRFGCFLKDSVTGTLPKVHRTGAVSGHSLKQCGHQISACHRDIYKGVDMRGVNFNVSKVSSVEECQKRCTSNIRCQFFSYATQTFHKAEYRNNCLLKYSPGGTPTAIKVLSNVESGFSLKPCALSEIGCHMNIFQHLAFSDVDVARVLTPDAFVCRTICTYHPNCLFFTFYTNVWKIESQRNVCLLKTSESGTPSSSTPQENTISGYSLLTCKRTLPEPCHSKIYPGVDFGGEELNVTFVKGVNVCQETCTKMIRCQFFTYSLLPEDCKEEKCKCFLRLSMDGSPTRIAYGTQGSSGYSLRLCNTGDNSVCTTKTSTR
# Chain of Pancreatic elastase (P00772 27-266): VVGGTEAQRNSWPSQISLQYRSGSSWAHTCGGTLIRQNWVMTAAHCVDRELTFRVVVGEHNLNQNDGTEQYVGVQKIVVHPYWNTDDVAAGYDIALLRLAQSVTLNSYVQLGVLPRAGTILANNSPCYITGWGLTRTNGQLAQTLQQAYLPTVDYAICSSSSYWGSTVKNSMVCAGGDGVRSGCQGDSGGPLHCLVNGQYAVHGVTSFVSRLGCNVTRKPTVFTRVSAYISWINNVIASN
Substance,Ki (Urokinase),Ki (Plasma kallikrein),"Ki (Thrombin; human thrombin, inhibitor 1.3 mM)","effect on proteinase activity (Thrombin; human α-thrombin, highest concentration used)","effect on proteinase activity (Factor Xa; factor Xa, highest concentration used)","Ki (Factor Xa; human factor Xa, inhibitor 1.3 mM)",effect on catalytic activity of isolated factor Xa (Factor Xa; isolated factor Xa),Ki (Pancreatic elastase),Ki (Leukocyte elastase),Ki (Subtilisin),Ki (Chymase),effect on prothrombin time (prothrombin time; concentration of 1.3 mM),"Quick (prothrombin time; hirustasin 1.3 mM, buffer control 79%)",effect on partial thromboplastin time ([1]; concentration of 1.3 mM),"Partial Thromboplastin Time ([1]; hirustasin 1.3 mM, buffer control 47.3 s)",effect on blood coagulation cascade in vitro [2],Trypsin SA [IU/mg] (specific activity) (trypsin),Chymotrypsin SA [IU/mg] (specific activity) (chymotrypsin)
"Hirustasin: polypeptide of SEQ ID NO:1, antistasin-type serine proteinase inhibitor isolated from the medical leech Hirudo medicinalis (TQGNTCGGETCSAAQVCLKGKCVCNEVHCRIRCKYGLKKDENGCEYPCSCAKASQ)",> 1.3 µM,> 1.3 µM,> 1.3 µM,no effect,no effect,> 1.3 µM,neither affects,> 1.3 µM,> 1.3 µM,> 1.3 µM,> 1.3 µM,no significant effect,80%,no significant effect,47.9 s,neither affects,,
"Mono S ®: pooled Mono S fractions, the finally isolated hirustasin (TQGNTCGGETCSAAQVCLKGKCVCNEVHCRIRCKYGLKKDENGCEYPCSCAKASQ; UniProt P80302 1-55, looked up)",,,,,,,,,,,,,,,,,2.7 IU/mg,0.15 IU/mg
